Key:
[1] = molecular target: GST-…; test: blot of mutant ligand proteins probed with 32P-labelled GST-WW-YAP
[2] = molecular target: GST-… fusion protein (mouse); test: Western ligand blot, reference GST-WBP-1 (1-74)

GST-WW-YAP fusion protein (WW domain of human YAP in pGEX-2TK)
fold reduction of binding against wild-type PY [1]: 2 fold | signal relative to the N-terminal construct [2]: 80%
